In one series the target is c-Src SH2. Description: SH2 binding enrichment of the phosphorylated peptide, bacterial display (enrichment ratio); higher = better substrate or ligand; peptides without Tyr show the background.
The next series has as its target SHP2-C SH2. Described as above.
The target of the next series is Grb2 SH2 (UniProt P62993). The series is described as above.
A further series deals with EPHB1 (UniProt P54762). Nature of the series: phosphorylation enrichment, bacterial display (enrichment ratio); higher = better substrate or ligand; peptides without Tyr show the background.
The subject of the next series is Fer (mouse). The series is described as above.
In the next series the target is Jak2 (UniProt O60674). The description is as above.
Jak2, sequence (O60674 whole entry, looked up): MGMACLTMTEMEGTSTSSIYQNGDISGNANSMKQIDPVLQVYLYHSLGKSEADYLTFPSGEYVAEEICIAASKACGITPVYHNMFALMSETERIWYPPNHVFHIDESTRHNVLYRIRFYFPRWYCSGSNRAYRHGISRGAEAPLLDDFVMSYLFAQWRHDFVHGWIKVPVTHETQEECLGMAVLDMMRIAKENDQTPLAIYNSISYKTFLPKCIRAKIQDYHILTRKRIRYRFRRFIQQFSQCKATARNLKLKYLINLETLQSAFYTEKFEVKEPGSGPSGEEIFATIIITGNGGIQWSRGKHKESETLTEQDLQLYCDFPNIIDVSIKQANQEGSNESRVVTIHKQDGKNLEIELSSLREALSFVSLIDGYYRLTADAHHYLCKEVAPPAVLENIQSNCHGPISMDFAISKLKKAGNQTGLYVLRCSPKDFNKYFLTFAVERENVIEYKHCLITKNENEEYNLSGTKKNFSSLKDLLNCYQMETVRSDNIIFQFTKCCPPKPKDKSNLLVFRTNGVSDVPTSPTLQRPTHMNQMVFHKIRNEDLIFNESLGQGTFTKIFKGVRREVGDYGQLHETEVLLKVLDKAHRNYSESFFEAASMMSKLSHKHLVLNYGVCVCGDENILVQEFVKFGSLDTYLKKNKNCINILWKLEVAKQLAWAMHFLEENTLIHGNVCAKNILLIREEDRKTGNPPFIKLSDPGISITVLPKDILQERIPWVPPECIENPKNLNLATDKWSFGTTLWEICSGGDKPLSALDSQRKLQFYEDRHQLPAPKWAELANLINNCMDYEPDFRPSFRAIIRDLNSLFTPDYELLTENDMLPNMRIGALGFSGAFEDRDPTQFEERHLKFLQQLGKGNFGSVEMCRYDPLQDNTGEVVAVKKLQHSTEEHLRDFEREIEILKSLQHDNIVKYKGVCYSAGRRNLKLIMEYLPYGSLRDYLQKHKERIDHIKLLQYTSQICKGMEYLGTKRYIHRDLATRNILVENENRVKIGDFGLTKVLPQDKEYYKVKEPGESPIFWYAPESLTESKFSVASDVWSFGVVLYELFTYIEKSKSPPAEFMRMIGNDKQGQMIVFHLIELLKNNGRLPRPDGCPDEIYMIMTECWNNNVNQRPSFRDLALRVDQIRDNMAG
In a further series the target is Fyn (UniProt P06241). The series is described as above.
Another series has as its target Fes (UniProt P07332). The description is as above.
For another series, the target named is Hck (UniProt P08631). Described as above.
Hck, sequence (P08631 whole entry, looked up): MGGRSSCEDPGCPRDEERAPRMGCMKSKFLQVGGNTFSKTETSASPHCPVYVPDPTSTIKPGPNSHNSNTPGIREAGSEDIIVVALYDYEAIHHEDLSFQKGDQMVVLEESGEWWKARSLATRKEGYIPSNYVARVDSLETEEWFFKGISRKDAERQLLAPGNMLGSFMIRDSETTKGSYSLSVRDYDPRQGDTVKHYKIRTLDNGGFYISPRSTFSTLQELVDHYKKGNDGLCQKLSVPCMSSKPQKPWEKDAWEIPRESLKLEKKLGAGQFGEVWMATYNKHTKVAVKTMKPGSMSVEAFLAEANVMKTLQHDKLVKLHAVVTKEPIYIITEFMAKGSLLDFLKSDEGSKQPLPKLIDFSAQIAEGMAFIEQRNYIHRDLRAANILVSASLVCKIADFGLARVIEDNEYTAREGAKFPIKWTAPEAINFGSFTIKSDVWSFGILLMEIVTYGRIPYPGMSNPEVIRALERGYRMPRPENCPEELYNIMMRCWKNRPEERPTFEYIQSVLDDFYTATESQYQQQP
A further series deals with FGFR3 (UniProt P22607). The series is described as above.
FGFR3, sequence (P22607 whole entry, looked up): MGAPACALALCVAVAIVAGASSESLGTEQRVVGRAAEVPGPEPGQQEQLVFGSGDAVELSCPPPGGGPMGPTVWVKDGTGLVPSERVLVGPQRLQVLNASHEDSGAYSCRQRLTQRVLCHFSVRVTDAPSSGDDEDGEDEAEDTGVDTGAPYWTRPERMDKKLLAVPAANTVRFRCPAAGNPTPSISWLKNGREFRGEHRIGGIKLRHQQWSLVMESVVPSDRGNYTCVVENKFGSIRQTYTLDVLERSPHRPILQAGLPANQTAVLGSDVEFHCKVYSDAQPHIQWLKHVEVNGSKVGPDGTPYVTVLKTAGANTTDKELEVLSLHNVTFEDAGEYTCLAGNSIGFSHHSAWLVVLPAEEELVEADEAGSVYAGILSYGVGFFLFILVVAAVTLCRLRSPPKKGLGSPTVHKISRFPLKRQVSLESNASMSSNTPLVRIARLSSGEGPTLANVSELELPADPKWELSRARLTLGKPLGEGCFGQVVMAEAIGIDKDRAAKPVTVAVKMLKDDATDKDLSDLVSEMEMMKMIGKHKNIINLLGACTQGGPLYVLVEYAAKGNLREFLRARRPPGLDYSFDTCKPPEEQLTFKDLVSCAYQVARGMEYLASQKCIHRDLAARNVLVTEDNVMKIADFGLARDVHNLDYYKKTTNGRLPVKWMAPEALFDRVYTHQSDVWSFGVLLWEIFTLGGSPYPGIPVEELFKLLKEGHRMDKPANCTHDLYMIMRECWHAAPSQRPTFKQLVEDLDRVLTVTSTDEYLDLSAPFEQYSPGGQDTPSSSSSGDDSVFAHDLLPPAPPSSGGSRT
Another series has as its target FGFR1 (UniProt P11362). Described as above.
A further series has as its target EPHB2 (UniProt P29323). The series is described as above.
The subject of another series is AncSZ. Described as above.
Another series has as its system c-Src. The description is as above.
A further series addresses MERTK (UniProt Q12866). The description is as above.
In another series the test system is c-Abl (mouse). The series is described as above.
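Throughout, for SH2 binding enrichment of the phosphorylated peptide, bacterial display: peptide library displayed on the E. coli surface as eCPX fusions, selected cells deep-sequenced, score is each peptide's frequency after selection divided by its frequency in the input.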
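Throughout, for phosphorylation enrichment, bacterial display: 11-residue human phosphosite peptides and single-mutation variants displayed on the E. coli surface, counted by deep sequencing, each peptide's frequency after selection divided by its frequency in the unselected input library; frequency after pTyr selection over input frequency; kinase dosed for 20-30% of maximal phosphorylation in three min.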

Grb2 SH2, sequence (P62993 whole entry, looked up): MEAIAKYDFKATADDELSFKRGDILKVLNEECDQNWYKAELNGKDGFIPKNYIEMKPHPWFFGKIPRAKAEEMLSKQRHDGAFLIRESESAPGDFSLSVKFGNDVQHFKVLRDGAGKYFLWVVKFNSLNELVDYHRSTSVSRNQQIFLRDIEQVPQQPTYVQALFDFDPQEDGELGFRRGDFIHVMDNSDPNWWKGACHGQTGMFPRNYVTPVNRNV
EPHB2, sequence (P29323 whole entry, looked up): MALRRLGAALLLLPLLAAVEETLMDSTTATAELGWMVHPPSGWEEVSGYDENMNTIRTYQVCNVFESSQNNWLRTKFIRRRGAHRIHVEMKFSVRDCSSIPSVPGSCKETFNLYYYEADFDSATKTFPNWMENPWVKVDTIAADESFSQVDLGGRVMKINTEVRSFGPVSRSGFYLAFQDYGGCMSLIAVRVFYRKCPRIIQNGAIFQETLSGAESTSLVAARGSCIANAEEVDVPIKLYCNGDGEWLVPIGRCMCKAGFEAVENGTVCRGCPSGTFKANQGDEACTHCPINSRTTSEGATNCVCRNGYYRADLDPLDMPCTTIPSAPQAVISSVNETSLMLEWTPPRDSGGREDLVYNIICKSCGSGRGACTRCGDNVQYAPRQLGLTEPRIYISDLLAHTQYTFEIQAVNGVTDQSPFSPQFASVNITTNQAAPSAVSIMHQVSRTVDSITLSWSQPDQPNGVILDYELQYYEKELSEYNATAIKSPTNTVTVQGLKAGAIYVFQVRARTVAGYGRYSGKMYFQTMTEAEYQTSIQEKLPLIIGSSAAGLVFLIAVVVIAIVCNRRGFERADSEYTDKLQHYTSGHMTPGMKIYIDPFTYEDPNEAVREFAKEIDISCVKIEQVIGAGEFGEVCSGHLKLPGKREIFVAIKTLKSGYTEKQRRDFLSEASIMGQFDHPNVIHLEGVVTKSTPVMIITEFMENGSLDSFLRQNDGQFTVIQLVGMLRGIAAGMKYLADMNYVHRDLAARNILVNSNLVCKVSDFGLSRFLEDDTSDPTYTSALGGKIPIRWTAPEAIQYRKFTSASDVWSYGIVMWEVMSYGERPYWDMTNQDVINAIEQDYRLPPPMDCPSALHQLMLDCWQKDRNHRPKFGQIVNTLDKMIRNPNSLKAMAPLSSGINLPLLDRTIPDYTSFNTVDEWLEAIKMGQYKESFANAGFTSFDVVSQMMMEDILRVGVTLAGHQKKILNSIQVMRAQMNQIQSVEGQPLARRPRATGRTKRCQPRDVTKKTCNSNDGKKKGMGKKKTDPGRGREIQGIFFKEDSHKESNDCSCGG
FGFR1, sequence (P11362 whole entry, looked up): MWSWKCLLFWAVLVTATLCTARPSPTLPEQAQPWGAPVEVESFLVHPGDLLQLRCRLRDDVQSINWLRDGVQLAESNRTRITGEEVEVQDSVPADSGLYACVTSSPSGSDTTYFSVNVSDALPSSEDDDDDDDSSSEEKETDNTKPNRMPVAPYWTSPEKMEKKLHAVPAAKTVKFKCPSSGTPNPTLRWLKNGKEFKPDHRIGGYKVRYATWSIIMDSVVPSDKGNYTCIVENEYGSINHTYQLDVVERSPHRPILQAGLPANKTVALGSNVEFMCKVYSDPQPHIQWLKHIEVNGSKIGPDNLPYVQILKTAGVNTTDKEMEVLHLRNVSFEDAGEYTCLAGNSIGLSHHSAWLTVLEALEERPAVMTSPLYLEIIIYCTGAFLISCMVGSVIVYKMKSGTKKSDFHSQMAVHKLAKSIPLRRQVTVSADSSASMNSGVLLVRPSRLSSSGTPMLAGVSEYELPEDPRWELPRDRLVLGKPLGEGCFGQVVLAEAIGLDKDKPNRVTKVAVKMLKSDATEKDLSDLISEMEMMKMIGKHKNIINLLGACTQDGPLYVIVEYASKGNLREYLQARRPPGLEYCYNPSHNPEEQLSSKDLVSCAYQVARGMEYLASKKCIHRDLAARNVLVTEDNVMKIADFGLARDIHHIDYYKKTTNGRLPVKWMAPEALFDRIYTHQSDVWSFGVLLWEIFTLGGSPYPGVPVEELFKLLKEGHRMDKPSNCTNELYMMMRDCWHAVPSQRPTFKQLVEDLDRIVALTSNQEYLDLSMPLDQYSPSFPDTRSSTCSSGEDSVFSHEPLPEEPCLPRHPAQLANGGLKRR

PKGTGYIKTEL [STAT1_Y701]: the SH2 binding enrichment in the series with c-Src SH2 worked out at 0.446; with SHP2-C SH2 it was 0.893; with Grb2 SH2, 0.93. The phosphorylation enrichment in the series with EPHB1 was determined as 0.411; with Fer (mouse), 0.801; with Jak2, 0.986; in the series with Fyn, 0.512; with Fes, 0.835; in the series with Hck, 0.748. For the same sequence, the phosphorylation enrichment with FGFR3 was found to be 1.01; with FGFR1, 0.792; with EPHB2 it was 0.557; with AncSZ, 0.973; with c-Src it was 0.635; with MERTK, 0.694. In the series on c-Abl (mouse), the phosphorylation enrichment stood at 0.559.

For PLGPLYASSNT [INSR_Y992_P997T], the results for the SH2 binding enrichment in the series with c-Src SH2, in the series with SHP2-C SH2 and with Grb2 SH2 were 0.526, 1.1 and 0.914, respectively. Moreover, the phosphorylation enrichment with EPHB1 worked out at 0.896; in the series with Fer (mouse), 1.1; with Jak2, 0.723; with Fyn it was 0.908; with Fes, 0.949; with Hck, 3.67. Also, the phosphorylation enrichment is 0.73 in the series with FGFR3; 0.633 with FGFR1; 0.783 in the series with EPHB2; 1.87 in the series on AncSZ; 1.22 in the series with c-Src; 1.12 with MERTK. Further, the phosphorylation enrichment with c-Abl (mouse) came out at 1.51.

PLGVLYKVKVY [PTS_Y128_V124L]: the results for the SH2 binding enrichment in the series with c-Src SH2, in the series with SHP2-C SH2 and with Grb2 SH2 were 0.484, 0.817 and 0.828, respectively. The phosphorylation enrichment in the series with EPHB1 came to 0.674; in the series on Fer (mouse), 0.511; in the series with Jak2, 1.19; with Fyn it was 0.339; with Fes, 1.4; in the series with Hck, 0.465. For the same sequence, the phosphorylation enrichment with FGFR3 is 0.82; with FGFR1 it was 0.415; with EPHB2, 0.626; with AncSZ, 1.61; with c-Src, 0.36; in the series with MERTK, 0.318. The phosphorylation enrichment in the series on c-Abl (mouse) stood at 0.876.

For PLLTDYSPQLQ [OTC_Y345_S340P], the values for the SH2 binding enrichment in the series with c-Src SH2, in the series with SHP2-C SH2 and with Grb2 SH2 were 0.445, 0.656 and 1, respectively. For the same sequence, the phosphorylation enrichment stood at 1.11 with EPHB1; 0.879 in the series with Fer (mouse); 0.964 with Jak2; 0.698 with Fyn; 1.9 in the series with Fes; 0.951 with Hck. Moreover, the phosphorylation enrichment with FGFR3 is 1.19; with FGFR1 it was 1.19; with EPHB2, 1.17; with AncSZ, 1.54; in the series with c-Src it was 0.616; with MERTK, 0.965. The phosphorylation enrichment in the series on c-Abl (mouse) is 1.02.

As to PPKFFDTRKLL [CYBB_Y41_Y41D], the SH2 binding enrichment with c-Src SH2 stood at 0.92; in the series with SHP2-C SH2, 1.17; with Grb2 SH2, 1.54. The phosphorylation enrichment with EPHB1 stood at 0.383; in the series on Fer (mouse) it was 0.941; with Jak2, 0.663; in the series with Fyn it was 0.518; with Fes, 0.639; with Hck, 0.51. The phosphorylation enrichment with FGFR3 amounted to 0.38; in the series with FGFR1, 0.365; with EPHB2, 0.556; in the series with AncSZ, 0.992; with c-Src, 0.614; with MERTK, 0.796. The phosphorylation enrichment with c-Abl (mouse) amounted to 0.759.

As to PPPPAYDDVAQ [TNK2_Y635], the results for the SH2 binding enrichment in the series with c-Src SH2, with SHP2-C SH2 and with Grb2 SH2 were 4.13, 0.706 and 0.757, respectively. Also, the phosphorylation enrichment with EPHB1 is 0.579; in the series with Fer (mouse), 0.547; in the series with Jak2, 1.03; in the series with Fyn, 0.45; in the series with Fes it was 0.993; with Hck, 0.439. For the same sequence, the phosphorylation enrichment with FGFR3 was 0.591; with FGFR1, 0.467; in the series with EPHB2, 0.669; with AncSZ, 1.16; in the series on c-Src it was 0.622; with MERTK it was 0.676. For the same sequence, the phosphorylation enrichment in the series with c-Abl (mouse) is 0.806.

On to PRIHSYRGHLW [VHL_Y112_R107P], for which the results for the SH2 binding enrichment in the series with c-Src SH2, with SHP2-C SH2 and in the series with Grb2 SH2 were 1.89, 1.86 and 1.55, respectively. Besides, the phosphorylation enrichment in the series with EPHB1 was found to be 1.56; in the series with Fer (mouse), 0.722; with Jak2, 0.628; with Fyn, 0.611; with Fes, 1.08; in the series with Hck, 0.713. In addition, the phosphorylation enrichment with FGFR3 is 0.579; in the series with FGFR1 it was 0.771; with EPHB2 it was 0.451; in the series with AncSZ, 1.01; with c-Src, 0.748; with MERTK, 0.655. The phosphorylation enrichment in the series on c-Abl (mouse) turned out to be 1.09.

For the origin of these results see the supplement of paper PMC10065799, “High-throughput profiling of sequence recognition by tyrosine kinases and SH2 domains using bacterial peptide display” (eLife, 2023).
